Test system: K4 kissing-loop RNA reporter
Assay: apparent KD of K4 kissing-loop reporter; higher = weaker reporter binding
Settings: Eterna round: R107
Description: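 RNA-MaP round R107: designed RNA switches with theophylline, tryptophan, arginine or FMN aptamers are transcribed on-chip within common flanks. They are titrated with a labelled K4 kissing-loop RNA reporter in RNA-MaP buffer (100 mM Tris pH 7.5, 80 mM KCl, 4 mM MgCl2), without ligand or with the indicated ligand. Median apparent KD per design.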

[1] = input ligand: theophylline 20 uM
[2] = input ligand: tryptophan 2.4 mM
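Further: bound reporter read as fluorescence of individual clusters on recovered sequencing chips by microscopy, with normalized cluster intensities fitted with a binding model.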

Sequence	apparent KD of K4 kissing-loop reporter (input ligand: FMN 200 uM) [µM]	apparent KD of K4 kissing-loop reporter (input ligand: arginine 13.2 mM) [µM]	apparent KD of K4 kissing-loop reporter (input ligand: none) [µM]	apparent KD of K4 kissing-loop reporter [1] [µM]	apparent KD of K4 kissing-loop reporter [2] [µM]
CCCUCACGAGUGAUGUUCGUAGGGUACAGUCAGGAUAUCAUGCGGUUGAGAAGGGACAGAGAGGGCGGCGGCGGGUUGCUCUUCG [Xeaan]	0.155	0.19	0.242	0.271	0.222
CCCUUGGUAUAUCGGUAUGUAUAAGCGGAUACCAGCCAGGACAACGGCCCUUGGCAGCCGGGCAGGCAGAGUGAUGUUCAUGCUA [theeternabot_exclusion_KL_Theo_A_22]	0.385	0.368	0.516	0.535	0.346
CCGAAGAACCAGUGAUGUUGGUUGACUAGACAGGAUAUGAGCAACAUCAGAAGGGUCUGGCUUCGGGAGUGGGUCGCGCUGACCU [Geeredin]	0.276	0.136	0.845	0.371	0.206
CCGAGUAGCUCCGAUACCAGCACAAUCGUUCAAUGAUCCAUGCGCAAGUGAUGUUUGCGUUGCCCUUGGCAGCGGGCAAAAGCUU [theeternabot_sameState_KL_Theo_B_2]	0.0613	0.09	0.0724	0.0866	0.0786
CCGCCAUCAUCAGAUACCAGGCUGAUGGCGGUAACCGCCAAGCGAGUGAUGUUCGCAUCAGUCCCUUGGCAGCUGAUGAAGACUG [#15 K4 Theophylline B Same State]	0.194	0.0943	0.146	0.155	0.0952
CCGCUGUAGUGCAUUAAGUGAUGUUUAGUGCAGGAUAUCUGGAAACAGAGAAGGGCACGUACUCGACGAGGCCAAUACAGCGGUU	0.319	0.29	0.335	0.31	0.358
CCUAUCUCAUACGAUACCAGUCAACGAUAUUUUAUCGAUGCCAUCACCGAGUGAUGUUCGGACCCUUGGCAGCGUAUGGGAUAGG [Ex Theophylline B K4 4]	0.248	0.244	0.27	0.445	0.251
CCUAUCUCAUACGAUACCAGUCGUCGAGUGAUGUUCGAUUAAAUAAAUUUGCCAAAUAACGACCCUUGGCAGCGUAUGGGAUAGG [Ex Theophylline B K4 16]	0.273	0.295	0.318	0.334	0.326
CCUAUCUCAUACGAUACCAGUCUAUUAAAACGAGUGAUGUUCGAAAAUUUGCCAUAUAAUGACCCUUGGCAGCGUAUGGGAUAGG [Ex Theophylline B K4 8]	0.201	0.185	0.203	0.211	0.176
CCUAUCUCAUACGAUACCAGUGAAUAACCAGUGAUGUUGGAAUAACCAAGGAAUAUUUUUCACCCUUGGCAGCGUAUGGGAUAGG [Ex Theophylline B K4 27]	0.492	0.285	0.378	0.385	0.312
CCUAUCUCAUACGAUACCAGUGAAUUUAUAUUUAUAAGCAGUGAUGUUGCAUUCCAAGUACACCCUUGGCAGCGUAUGGGAUAGG [Ex Theophylline B K4 21]	0.197	0.203	0.213	0.168	0.161
CCUAUCUCAUACGAUACCAGUGAAUUUAUGUUUAUUAGCAGUGAUGUUGCAUUCCAAGUACACCCUUGGCAGCGUAUGGGAUAGG [Ex Theophylline B K4 23]	0.178	0.201	0.205	0.193	0.151
CCUGAAUCAGUGAGUGAUGUUCACGUCGAUACCAGCUAGGAUACUAGCCCUUGGCAGCGACAAUUGCCAAGUGUGGCUAGUCAAA [Theo B SS t8]	0.14	0.134	0.16	0.148	0.147
CCUGAGUGAUGUUUAGGAGGCCCGAUAGAUACCAGAAAUACUGCGUUCCCUUGGCAGCUACGCGGACGGAAGACUACGUUACACG [theeternabot_exclusion_KL_Theo_A_16]	0.39	0.222	0.324	0.379	0.325
CCUGCAGCUGUAACCGAGUGAUGAUACGGACGAGGACCGGUACGGCCGCCACUCGCCAGUGAUGUUGGUGUGGGAGGACGUAACU [KL-XTryp-A23]	0.241	0.177	0.237	0.256	0.221
CCUUCCACAGAAGGAUAUCGGAGUGAUGUUCCCAAGCAGACCUCAAAGUGGGUAGCCAGUCAGUUCCGAGAAGGUCUGCAGCGAG [theeternabot_exclusion_KL_FMN_B_26]	0.25	0.28	0.271	0.37	0.189

Sequence	apparent KD of K4 kissing-loop reporter (input ligand: FMN 200 uM) [µM]	apparent KD of K4 kissing-loop reporter (input ligand: arginine 13.2 mM) [µM]	apparent KD of K4 kissing-loop reporter (input ligand: none) [µM]	apparent KD of K4 kissing-loop reporter [1] [µM]	apparent KD of K4 kissing-loop reporter [2] [µM]
CCUUCUCUUGAUAGUGAUGUUAUCAAGGACAAGGAUAUCAUCUCAAUGAGAAGGUGUCCUUGAUAACAUGGAGGUCUGAAACAGA [Omei KL FMN A Exc C v3]	0.148	0.249	0.287	0.407	0.385
CCUUCUCUUGAUAGUGAUGUUAUCAAGGGCAAGGAUAUCAUUUUAAUGAGAAGGUGUCCUUGAUAACAUGGAGGUCUGAAACAGA [Omei KL FMN A Exc C v6]	0.151	0.0866	0.114	0.169	0.0955
CGAACACCCUCGGCCGCCACUAGCCGUAGCCUGCGCUUGCGGAGUGAUGUUCUGAAGCAGGAUGUUAGGACCGGGAGCUACAUCC [theeternabot_sameState_KL_Trp_B_33]	0.527	0.542	0.446	0.428	0.371
CGACCGGUAGCGGAUACCAGCCUUUGAGUGAUGUUCGAGUUGAGUUUCCGCGCGUCGAAAGGCCCUUGGCAGCCGAUACGCCUUC [theeternabot_exclusion_KL_Theo_B_14]	0.236	0.192	0.207	0.187	0.188
CGAGAGGUCUUGUUUGGAUGUGUUUUAUGGCGAGGACCGGUACGGCCGCCACUCGGGUGAUGUUAGUGAUGUUGAUGUAGUGAUG [dcdmullin]	0.0919	0.0799	0.0934	0.162	0.0769
CGAGUCGGUUCAGAUACCAGCCAAUUAAAGUCGAGUGAUGUUCGACAAUGAACGUCCAAAGGCCCUUGGCAGCUGAAUUGGGAAC [Same State Theophylline B GF 19]	0.216	0.107	0.191	0.25	0.122
CGAGUGAUGUUCGUUCGUAUAUUUGGGUGACAGGAUAUGCGGAAACGCAGAAGGGUCACCUUCGGGUUACCCGAAUUGGCGUUAU [Model 1]	0.372	0.275	0.427	0.322	0.297
CGAGUGAUGUUCGUUCGUUUAUUUCGUUGACAGGAUAUGCGGAAACGCAGAAGGGUCACCUUUGAGUUAACGGAAUUAACGUUAU [Ex FMN A 28]	0.561	0.452	0.544	0.49	0.456
CGAGUGAUGUUCGUUCGUUUAUUUUUUUGACAGGAUAUGCGGAAACGCAGAAGGGUCACCUUUGAGUUAAAAGAAUUUACGUUAU [Ex FMN A 25]	0.46	0.475	0.576	0.465	0.414
CGAGUGAUGUUCGUUCUUUUAUUUUUUUGACAGGAUAUGCGGAAACGCAGAAGGGUCACCUUUGAGUUAAAAGAAUUUAAGUUAU [Ex FMN A 24]	0.309	0.284	0.353	0.287	0.235
CGAUACGGAAAUACGUGUCUCUAUUCAGAAGGAGCGUGUUUGUACACAGGUAGGUCGCUGAAAUUUAAACUAGUGAUGUUAGACU [JR_SSArginiA_Sub003]	1.16	0.816	1.16	0.895	0.929
CGAUCUUGGUCGGCCGCCACUACACCCACACCAAAUAGGAAAGUAGCGAGUGAUGUUUGUGACGUUAGGACCGGGACCACUGGUC [theeternabot_sameState_KL_Trp_B_25]	0.586	0.321	0.526	0.564	0.392
CGCAGUGAUGUUGCGAAUAUAAUGCAUUCAGAGGAUAUUCGUUUGGGAAGAAGGCUGAAUCGUUCUUCGAGUGAUGUUCGAGGAA [Same State FMN A GF 17]	0.141	0.133	0.154	0.136	0.132
CGCAGUGAUGUUGCGAGUUAAUUCAGGGAAGGAGCGCCACAGAUGGCAGGUAGGUCGCCCACGCAGUGAUGUUGCGUAUUCGGGU [Exclusion Arginine A GF 4]	0.0943	0.0968	0.0957	0.111	0.0806
CGCAGUGAUGUUGCUAUUAUUCUUGGUUAACGAGGACCGGUACGGCCGCCACUCGAUUUCUAUCUAGUCCAGUGUUUUUUUGAGU [whbob_EX_Tryp_A_t7]	0.347	0.392	0.47	0.451	0.25
CGCCAGUGAUGUUGGCGCAGCUACCGGGAAGGAGCGCCGUAGUCGGCAGGUAGGUCGCCCGGGCAGUGAUGUUGCCUCAUACCGU [Exclusion Arginine A GF 21]	0.229	0.247	0.258	0.347	0.236
